# Assays:
# [1] = tested on: patients with untreated advanced NSCLC; experiment: Phase III clinical study, overall survival (OS); assay type: in vivo, human
# Protocol: About 450 patients with advanced NSCLC not accompanied by EGFR-sensitive mutations and ALK fusions were randomly divided into two groups according to a 2:1 ratio, with the test group receiving toripalimab in combination with first-line standard chemotherapy and the control group receiving placebo in combination with first-line standard chemotherapy. Stratification was performed according to PD-L1 expression (TC≥1% vs TC<1%), smoking status (frequent smoking vs no smoking or little smoking), and pathological type (squamous cell carcinoma vs non-squamous cell carcinoma).
# After randomization, the patients were subjected to treatment in the induction stage for 4-6 cycles, during which the patients received toripalimab/placebo+first-line standard chemotherapy. After the induction stage was over, the patients were subjected to treatment in the maintenance stage, during which patients with squamous cell carcinoma continued to receive toripalimab/placebo treatment until progressive disease, and patients with non-squamous cell carcinoma continued to receive toripalimab/placebo+pemetrexed treatment until progressive disease.
# Unless otherwise specified, the efficacy analysis was based on the ITT set, which was analyzed by groups according to the treatment regimen to which patients were assigned at randomization.
# For analysis of secondary efficacy endpoints OS, DOR, and TTR, the method described above as applied to the primary efficacy endpoint PFS was used. For ORR and DCR, the percentage of patients in each treatment group was calculated, and their 95% confidence intervals were calculated using the Clopper-Pearson method. The nominal P values for inter-group comparison were calculated using the Cochran-Mantel-Haenszel method considering randomization stratification factors that were the same as the primary efficacy analysis, and the 95% CI for the inter-group rate differences was estimated.
# [2] = tested on: patients with untreated advanced NSCLC; experiment: Phase III clinical study, biomarker analysis (WES, TMB, gene mutations); assay type: in vivo, human
# Protocol: As of Oct. 31, 2021, whole exome sequencing (WES) was performed on tumor biopsies and matched peripheral blood from 394 patients.
# Tumor mutation burden (TMB) was determined by analyzing somatic mutations within coding regions of the human genome. The median TMB in each group was 6.6 mutations per million base pairs (Mb). Tumor tissue from 122 (26.2%) patients had more than 10 mutations/Mb, 72.1% of which was also PD-L1 TC≥1% (see FIG. 6a). […] However, compared to TMB-L (i.e., low TMB) patients (TMB<10 mutations/Mb). TMB-H patients had better PFS in the toripalimab group than in the placebo group (interaction P=0.026) (see FIGS. 7a and 7b).
# Gene set enrichment analysis was performed on the relevant genes to identify over-represented biological pathways. […] In addition, patients with alterations in the IL-7 signaling pathway (HGF, IRS1, IRS2, and SMARCA4) or chromatin remodeling SWI/SNF complex (SMARCA4, SMARCA2, and PBRM1) also had better PFS results from combination therapy with toripalimab (see FIGS. 12-13).
# [3] = tested on: patients with untreated advanced NSCLC; experiment: Phase III clinical study, safety analysis (SS population)
# Protocol: This is a randomized, double-blind, placebo-controlled, multicenter, phase III clinical study for assessing the efficacy and safety of toripalimab (JS001) or placebo in combination with first-line chemotherapy in patients with untreated advanced NSCLC and exploring the population with optimal biomarker prediction.
# Toripalimab 240 mg/placebo was administered by intravenous infusion once every three weeks (Q3W) in cycles of 21 days, with treatment continued until the patients met the discontinuation criteria, i.e., recorded progressive disease, unacceptable AEs, investigator-assessed unsuitability for continued treatment, withdrawal of informed consent, 2 years of JS001 treatment, or other reasons as specified in the protocol.
# The selection of cisplatin or carboplatin was at the discretion of the investigator.
# Safety analysis set (SS): including all patients who received at least one dose of the study drug (JS001/placebo/chemotherapeutic agent).
# Safety analysis was performed in SS and crossover treatment analysis sets, where safety data from the double-blind stage of the primary study and the crossover treatment stage were analyzed separately. Safety analyses include drug exposure, compliance, adverse events, laboratory examinations, vital signs, physical examinations, electrocardiogramaminations, ECOG scores, etc.
# All safety analyses were based on the SS population (464 patients), including 308 patients in the test group and 156 patients in the control group. […] The primary safety analysis results based on the SS population in the double-blind stage of the primary study are as follows:
# [4] = patients with squamous cell carcinoma
# [5] = SS population, double-blind stage
# [6] = compared to placebo + chemotherapy
substance,measurement,setting,value
JS001 + standard first-line chemotherapy: toripalimab 240 mg Q3W plus albumin-bound paclitaxel+carboplatin (squamous) or pemetrexed+cisplatin/carboplatin (non-squamous),HR for OS (test vs control),[1]; ITT population,0.81
same,median OS,"[1]; ITT population, as of Mar. 11, 2021, OS data not mature",21.0 months
same,deaths reported,"[1]; as of Mar. 11, 2021, median follow-up 9.82 months",25.6%
same,HR for OS (test vs control),[1]; patients with non-squamous cell carcinoma,0.56
same,HR for OS (test vs control),[1]; [4],1.23
same,median OS,[1]; [4],21.0 months
same,response rate (ORR),"[2]; ITT population, as of Oct. 31, 2021",65.7%
same,ORR,"[2]; TMB-H patients (TMB≥10 mutations/Mb), as of Oct. 31, 2021",72.7%
same,median PFS,[2]; patients carrying FA/PI3K/Akt pathway mutations,8.9 months
same,median PFS,"[2]; patients carrying the SMARCA4 mutation (n=48), especially non-squamous cell subgroup (n=33)",9.9 months
same,SAE: anemia,[3]; SS population,5.2%
same,SAE: bone marrow depression,[3]; SS population,1.0%
same,SAE: infectious pneumonia,[3]; SS population,4.9%
same,SAE: leukopenia,[3]; SS population,2.9%
same,SAE: neutropenia,[3]; SS population,5.5%
same,SAE: thrombocytopenia,[3]; SS population,6.8%
same,TEAE: anemia,[3]; SS population,88.3%
same,TEAE: anorexia,[3]; SS population,32.1%
same,TEAE: constipation,[3]; SS population,18.5%
same,TEAE: elevated aspartate aminotransferase,[3]; SS population,31.8%
same,TEAE: fatigue,[3]; SS population,33.4%
same,TEAE: fever,[3]; SS population,20.8%
same,TEAE: hypothyroidism,[3]; SS population,14.9%
same,TEAE: leukopenia,[3]; SS population,83.1%
same,TEAE: nausea,[3]; SS population,31.8%
same,TEAE: neutropenia,[3]; SS population,83.4%
same,TEAE: rash,[3]; SS population,20.1%
same,TEAE: thrombocytopenia,[3]; SS population,68.5%
same,proportion of SAEs judged by the investigator to be related to the treatment regimen,[3]; SS population,31.2%
same,proportion of SAEs occurring during treatment,[3]; SS population,38.6%
same,proportion of SAEs of grade 3 or higher judged by the investigator to be related to the treatment regimen,[3]; SS population,22.4%
same,proportion of TEAEs of grade 3 or higher as per CTCAE,[3]; SS population,76.3%
same,proportion of TEAEs of grade 3 or higher as per CTCAE judged by the investigator to be related to the treatment regimen,[3]; SS population,71.4%
same,proportion of patients who experienced at least 1 TEAE,[3]; [5],99.0%
same,proportion of patients who experienced at least 1 TEAE related to the treatment regimen,[3]; [5],98.1%
same,effect on chemotherapy-related toxicity (in words),[3]; [6],did not increase chemotherapy-related toxicity
same,effect on the incidence of adverse events of grade 3 or higher (in words),[3]; [6],did not increase the incidence of adverse events of grade 3 or higher

# Reference: patent US20240218066A1, “USE OF ANTI-PD-1 ANTIBODY IN COMBINATION WITH FIRST-LINE CHEMOTHERAPY IN TREATMENT OF ADVANCED NON-SMALL CELL LUNG CANCER” (SHANGHAI JUNSHI BIOSCIENCES CO., LTD., priority 2021, published 2024)
